Values quoted from earlier work as cited in publication PMC8391295.

Target: CD4 (Homo sapiens) (UniProt P01730)

Sequence of Prolactin-inducible protein (P12273 29-146): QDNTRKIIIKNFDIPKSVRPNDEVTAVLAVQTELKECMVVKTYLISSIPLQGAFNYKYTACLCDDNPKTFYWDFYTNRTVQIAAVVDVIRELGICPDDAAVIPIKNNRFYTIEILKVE

Kd: 6 nM
Substance: Prolactin-inducible protein (from UniProt P12273)
